According to patent publication US20050215478A1, “Amino acid sequences capable of facilitating penetration across a biological barrier” (priority 2002, published 2005):
“And” between values parts separate entries of the source, which are not always exact repeats. Equal entries are not always repeated.

Experiment: Translocation of ^125I-labeled peptide from mouse intestine loop into blood and organs (Example 1)
Format: in vivo, BALB/c mice
Conditions: for recovered cpm/mouse / blood 15′, total cpm in the blood / blood 30′, total cpm in the blood / blood 60′, total cpm in the blood / blood/injected cpm (%), 15′ / blood/injected cpm (%), 30′ / blood/injected cpm (%), 60′ / recovered/injected cpm (%) / Epididymal fat, cpm recovered / brain, cpm recovered / kidney, cpm recovered / liver, cpm recovered / lungs, cpm recovered: Table 2 formulation (PE 6,200), intestinal loop, 224,160 cpm injected per mouse; for recovered cpm/mouse: blood 60′ plus organs; for blood 15′, total cpm in the blood / blood 30′, total cpm in the blood / blood 60′, total cpm in the blood: calculated from 50 μl sample assuming 2 ml blood; for Epididymal fat, cpm recovered / brain, cpm recovered / kidney, cpm recovered / liver, cpm recovered / lungs, cpm recovered: organ removed after 60 min
Source text: The tested peptide, representing a penetrating peptide and a radio-labeled probe in a contiguous construct of SEQ ID NO 3 and SEQ ID NO 17, hereby named IBW 002 (Novetide, lot 40139-45, sequence: Ac-NYYDITLALAGICQSARLVQQLAGGGKGGK-NH2 (SEQ ID NO:22), was ^125I-labeled using the Bolton Hunter Reagent (Biochem. J. 133:529-39 (1973)). The labeled peptide was loaded on a Sephadex G10 column, washed with phosphate buffer and eluted with 3M Tiocyanate in DDW+50% n-butanol. The peak, containing 6 fractions, was kept and used for in vivo experiments.
Four male BALB/c mice, 9-10 weeks old, were deprived of food, 18 hours prior to the experiment.
The mice were anesthetized by i.p. injection of 0.05 ml of a mixture of 0.15 ml xylazine+0.85 ml of ketamin. A 2 cm long incision was made along the center of the abdomen, through the skin and abdominal wall. An intestine loop was gently pulled out through the incision and placed on wet gauze beside the animal. The loop remained intact through the entire procedure and was kept wet during the whole time. The tested compound was injected into the loop, 0.2 ml/ mouse, containing around 200,000 cpm, using a 26G needle. Fifteen minutes post injection the tip of the tail was cut and a 50 μl blood sample was drawn into a glass capillary. This was repeated 30 and 60 minutes post injection. The animals were subsequently sacrificed. The following organs were removed: epididymal fat, kidneys, liver, lungs and brain. Radioactivity in each organ and in blood samples was counted. A 5 μl sample of the injected solution was counted to determine the total injected cpm per mouse.
The total radioactive labeling injected per mouse was 224,160 cpm. Total cpm in the blood was calculated based on the 50 μl blood sample drawn out at different time points post injection, in the assumption that total blood volume of each mouse is 2 ml.

[1] = individual mice, listed as 125I-IBW-002

In the case of “Ac-NYYDITLALAGICQSARLVQQLAGGGKGGK-NH2 (Ac-NYYDITLALAGICQSARLVQQLAGGGKGGK-NH2; also: 125I label) [IBW-002, ^125I-labeled using the Bolton Hunter Reagent for in vivo tests]”, the recovered cpm/mouse [1] is reported as 41,440 cpm and 66,525 cpm and 61,642 cpm and 82,325 cpm, the recovered cpm/mouse (mean of 4 mice) is reported as 62,983 cpm and the “blood 15′, total cpm in the blood” value [1] is reported as 37,080 cpm and 68,960 cpm and 62,280 cpm and 80,280 cpm. The “blood 30′, total cpm in the blood” value [1] was 36,120 cpm and 60,680 cpm and 52,320 cpm and 70,840 cpm, the “blood 60′, total cpm in the blood” value [1] was 29,720 cpm and 47,800 cpm and 44,000 cpm and 59,720 cpm and the “blood 15′, total cpm in the blood” value (mean of 4 mice) was 62,150 cpm. For the same substance, the “blood 30′, total cpm in the blood” value (mean of 4 mice) was 54,990 cpm, the “blood 60′, total cpm in the blood” value (mean of 4 mice) was 45,310 cpm and the “blood/injected cpm (%), 15′” value [1] was 16.54% and 30.76% and 27.78% and 35.81%. The “blood/injected cpm (%), 30′” value [1] was 16.11% and 27.07% and 23.34% and 31.60%, the “blood/injected cpm (%), 60′” value [1] was 13.26% and 21.32% and 19.63% and 26.64% and the “recovered/injected cpm (%)” value [1] was 18.49% and 29.68% and 27.50% and 36.73%. The “blood/injected cpm (%), 15′” value (mean of 4 mice) was 27.73%, the “blood/injected cpm (%), 30′” value (mean of 4 mice) was 24.53% and the “blood/injected cpm (%), 60′” value (mean of 4 mice) was 20.21%. For the same substance, the “recovered/injected cpm (%)” value (mean of 4 mice) was 28.10%, the “Epididymal fat, cpm recovered” value [1] was 547 cpm and 869 cpm and 973 cpm and 1,174 cpm and the “brain, cpm recovered” value [1] was 138 cpm and 190 cpm and 202 cpm and 301 cpm. The “kidney, cpm recovered” value [1] was 4,068 cpm and 6,614 cpm and 6,400 cpm and 7,650 cpm, the “liver, cpm recovered” value [1] was 6,102 cpm and 9,709 cpm and 8,718 cpm and 11,674 cpm and the “lungs, cpm recovered” value [1] was 865 cpm and 1,343 cpm and 1,349 cpm and 1,806 cpm. For the same substance, the “Epididymal fat, cpm recovered” value (mean of 4 mice) was 891 cpm, the “brain, cpm recovered” value (mean of 4 mice) was 208 cpm and the “kidney, cpm recovered” value (mean of 4 mice) was 6,183 cpm. For the same substance, the “liver, cpm recovered” value (mean of 4 mice) was 9,051 cpm, the “lungs, cpm recovered” value (mean of 4 mice) was 1,341 cpm and the “time at which the relative amount in the blood peaked” value (post-intestinal administration, blood sampled at 15, 30 and 60 min, Table 2 formulation) was 15 min.
